Source: publication PMC2584968

Biological target: three-disulphide variant of core gp120 (HXBc2) (HIV-1 (HXBc2))
Assay: SPR

For CD4-induced antibody 17b, the fold increase in on-rate (through stabilization) was 95 fold.
